Laboratory results taken from US20140057284A1, “PHOTOLUMINESCENT MOLECULAR COMPLEX AND METHOD FOR DETERMINING OF THE CONCENTRATION OF SAID MOLECULAR COMPLEX” (priority 2011, published 2014).

Tests used:
Assay in all cases: biochemical
Details in all cases: read-out: Percentages of residual activities of the kinase reaction
ABL = ABL (Homo sapiens, UniProt P00519)
Protocol: (§1) Selectivity testing (Table 2) was performed on the commercial basis at the Division of Signal Transduction Therapy, University of Dundee. ATP concentrations that were used in testing were close to the Km value of the kinase.

Aurora A = Aurora A (Homo sapiens, UniProt O14965)
Aurora A, sequence (O14965 whole entry): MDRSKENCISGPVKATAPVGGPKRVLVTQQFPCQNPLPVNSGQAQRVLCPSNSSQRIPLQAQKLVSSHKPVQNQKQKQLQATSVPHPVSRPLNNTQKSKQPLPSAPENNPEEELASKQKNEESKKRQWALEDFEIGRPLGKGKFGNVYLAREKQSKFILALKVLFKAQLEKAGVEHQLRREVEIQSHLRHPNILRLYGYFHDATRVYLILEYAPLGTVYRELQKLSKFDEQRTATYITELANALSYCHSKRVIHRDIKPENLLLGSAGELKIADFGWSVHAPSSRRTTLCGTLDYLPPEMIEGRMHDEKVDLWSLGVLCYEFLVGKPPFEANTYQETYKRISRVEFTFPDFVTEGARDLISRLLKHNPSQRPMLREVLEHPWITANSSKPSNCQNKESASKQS
Protocol: as §1

Aurora B = Aurora B (Homo sapiens, UniProt Q96GD4)
Protocol: as §1

BRK = BRK (Homo sapiens, UniProt Q13882)
Protocol: as §1

BRSK1 = BRSK1 (Homo sapiens, UniProt Q8TDC3)
Protocol: as §1

BRSK2 = BRSK2 (Homo sapiens, UniProt Q8IWQ3)
Protocol: as §1

CAMKKb = CAMKKb (Homo sapiens, UniProt Q96RR4)
Protocol: as §1

CSK = CSK (Homo sapiens, UniProt P41240)
Protocol: as §1

DAPK1 = DAPK1 (Homo sapiens, UniProt P53355)
Protocol: as §1

DYRK1A = DYRK1A (Homo sapiens, UniProt Q13627)
Protocol: as §1

DYRK2 = DYRK2 (Homo sapiens, UniProt Q92630)
Protocol: as §1

DYRK3 = DYRK3 (Homo sapiens, UniProt O43781)
DYRK3, sequence (O43781 whole entry, species assumed): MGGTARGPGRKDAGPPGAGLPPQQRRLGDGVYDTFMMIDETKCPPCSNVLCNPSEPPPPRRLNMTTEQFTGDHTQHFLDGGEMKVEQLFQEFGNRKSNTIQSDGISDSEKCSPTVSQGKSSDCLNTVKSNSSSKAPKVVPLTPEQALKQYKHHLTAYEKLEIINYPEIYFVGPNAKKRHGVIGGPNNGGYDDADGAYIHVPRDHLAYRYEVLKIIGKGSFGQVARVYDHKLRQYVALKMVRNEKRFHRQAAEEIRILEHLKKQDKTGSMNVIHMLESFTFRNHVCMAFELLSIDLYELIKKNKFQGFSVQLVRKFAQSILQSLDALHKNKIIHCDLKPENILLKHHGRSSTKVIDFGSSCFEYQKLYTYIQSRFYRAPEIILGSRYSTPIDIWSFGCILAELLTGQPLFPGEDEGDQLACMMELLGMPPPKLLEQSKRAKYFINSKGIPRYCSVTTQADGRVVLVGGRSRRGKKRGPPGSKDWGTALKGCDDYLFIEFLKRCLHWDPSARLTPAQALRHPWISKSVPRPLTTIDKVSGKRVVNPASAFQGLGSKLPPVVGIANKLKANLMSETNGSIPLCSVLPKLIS
Protocol: as §1

EPH-B3 = EPH-B3 (Homo sapiens, UniProt P54753)
Protocol: as §1

ERK1 = ERK1 (Homo sapiens, UniProt P27361)
ERK1, sequence (P27361 whole entry, species assumed): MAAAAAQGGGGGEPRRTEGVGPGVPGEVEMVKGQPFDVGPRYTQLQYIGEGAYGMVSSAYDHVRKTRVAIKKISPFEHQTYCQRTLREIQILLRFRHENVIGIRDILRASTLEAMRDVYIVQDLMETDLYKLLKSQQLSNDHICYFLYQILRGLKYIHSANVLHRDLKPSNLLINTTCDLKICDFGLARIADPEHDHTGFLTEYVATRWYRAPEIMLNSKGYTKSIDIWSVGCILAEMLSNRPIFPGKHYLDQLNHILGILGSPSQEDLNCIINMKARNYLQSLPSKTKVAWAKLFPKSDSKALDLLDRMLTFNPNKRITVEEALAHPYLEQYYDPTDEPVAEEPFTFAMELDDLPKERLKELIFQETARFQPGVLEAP
Protocol: as §1

HIPK2 = HIPK2 (Homo sapiens, UniProt Q9H2X6)
Protocol: as §1

IGF-1R = IGF-1R (Homo sapiens, UniProt P08069)
Protocol: as §1

IR = IR (Homo sapiens, UniProt P06213)
Protocol: as §1

JNK1 = JNK1 (Homo sapiens, UniProt P45983)
Protocol: as §1

JNK3 = JNK3 (Homo sapiens, UniProt P53779)
Protocol: as §1

LKB1 = LKB1 (Homo sapiens, UniProt Q15831)
Protocol: as §1

MKK2 = MKK2 (Homo sapiens, UniProt P36507)
MKK2, sequence (P36507 whole entry, species assumed): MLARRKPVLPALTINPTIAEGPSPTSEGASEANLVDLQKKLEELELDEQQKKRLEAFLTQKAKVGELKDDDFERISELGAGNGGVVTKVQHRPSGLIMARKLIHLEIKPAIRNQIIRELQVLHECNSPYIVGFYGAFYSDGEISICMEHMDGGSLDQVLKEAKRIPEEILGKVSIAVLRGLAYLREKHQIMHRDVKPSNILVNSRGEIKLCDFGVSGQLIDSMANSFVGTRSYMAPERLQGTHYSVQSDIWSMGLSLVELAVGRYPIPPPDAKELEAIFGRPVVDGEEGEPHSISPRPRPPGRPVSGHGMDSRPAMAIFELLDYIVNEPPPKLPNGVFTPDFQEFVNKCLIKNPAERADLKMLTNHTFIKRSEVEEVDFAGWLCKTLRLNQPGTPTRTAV
Protocol: as §1

MLK3 = MLK3 (Homo sapiens, UniProt Q16584)
MLK3, sequence (Q16584 whole entry, species assumed): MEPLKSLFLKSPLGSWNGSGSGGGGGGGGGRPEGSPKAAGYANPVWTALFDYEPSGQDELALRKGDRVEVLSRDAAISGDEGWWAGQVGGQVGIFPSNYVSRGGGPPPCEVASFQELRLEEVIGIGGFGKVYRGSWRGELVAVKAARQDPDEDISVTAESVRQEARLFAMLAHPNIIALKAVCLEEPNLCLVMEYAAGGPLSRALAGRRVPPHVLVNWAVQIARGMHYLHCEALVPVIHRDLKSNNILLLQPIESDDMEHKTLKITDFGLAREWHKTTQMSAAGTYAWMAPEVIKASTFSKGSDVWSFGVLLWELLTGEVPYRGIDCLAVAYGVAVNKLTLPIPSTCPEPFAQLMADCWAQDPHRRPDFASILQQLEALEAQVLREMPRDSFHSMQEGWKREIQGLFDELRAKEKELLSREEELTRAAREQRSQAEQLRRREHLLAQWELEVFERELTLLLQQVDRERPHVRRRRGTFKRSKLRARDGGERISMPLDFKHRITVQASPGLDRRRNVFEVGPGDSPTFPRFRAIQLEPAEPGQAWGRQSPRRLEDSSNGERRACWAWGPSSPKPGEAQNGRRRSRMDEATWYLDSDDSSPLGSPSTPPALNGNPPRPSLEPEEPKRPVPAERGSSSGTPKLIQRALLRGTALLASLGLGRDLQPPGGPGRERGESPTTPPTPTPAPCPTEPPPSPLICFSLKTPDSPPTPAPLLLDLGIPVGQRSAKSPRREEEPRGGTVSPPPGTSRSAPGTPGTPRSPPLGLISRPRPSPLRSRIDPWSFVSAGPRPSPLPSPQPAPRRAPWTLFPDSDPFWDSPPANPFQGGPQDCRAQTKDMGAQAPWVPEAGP
Protocol: as §1

MNK2 = MNK2 (Homo sapiens, UniProt Q9HBH9)
MNK2, sequence (Q9HBH9 whole entry, species assumed): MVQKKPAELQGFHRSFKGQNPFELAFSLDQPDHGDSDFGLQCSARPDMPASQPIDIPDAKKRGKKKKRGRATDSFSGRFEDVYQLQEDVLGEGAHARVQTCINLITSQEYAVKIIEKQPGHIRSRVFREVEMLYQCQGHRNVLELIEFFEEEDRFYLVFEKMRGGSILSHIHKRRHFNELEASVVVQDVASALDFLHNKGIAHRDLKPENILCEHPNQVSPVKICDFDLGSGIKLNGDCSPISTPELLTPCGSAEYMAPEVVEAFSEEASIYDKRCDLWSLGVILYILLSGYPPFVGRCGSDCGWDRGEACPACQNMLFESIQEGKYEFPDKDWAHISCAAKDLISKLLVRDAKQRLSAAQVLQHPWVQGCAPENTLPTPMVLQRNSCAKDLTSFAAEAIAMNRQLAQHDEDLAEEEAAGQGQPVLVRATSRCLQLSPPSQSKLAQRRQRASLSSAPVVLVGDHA
Protocol: as §1

MST2 = MST2 (Homo sapiens, UniProt Q13188)
Protocol: as §1

PAK4 = PAK4 (Homo sapiens, UniProt O96013)
Protocol: as §1

PIM3 = PIM3 (Homo sapiens, UniProt Q86V86)
Protocol: as §1

PKCz = PKCz (Homo sapiens, UniProt Q05513)
Protocol: as §1

PRK2 = PRK2 (Homo sapiens, UniProt Q16513)
Protocol: as §1

RIPK2 = RIPK2 (Homo sapiens, UniProt O43353)
Protocol: as §1

RSK1 = RSK1 (Homo sapiens, UniProt Q15418)
Protocol: as §1

S6K1 = S6K1 (Homo sapiens, UniProt P23443)
S6K1, sequence (P23443 whole entry, species assumed): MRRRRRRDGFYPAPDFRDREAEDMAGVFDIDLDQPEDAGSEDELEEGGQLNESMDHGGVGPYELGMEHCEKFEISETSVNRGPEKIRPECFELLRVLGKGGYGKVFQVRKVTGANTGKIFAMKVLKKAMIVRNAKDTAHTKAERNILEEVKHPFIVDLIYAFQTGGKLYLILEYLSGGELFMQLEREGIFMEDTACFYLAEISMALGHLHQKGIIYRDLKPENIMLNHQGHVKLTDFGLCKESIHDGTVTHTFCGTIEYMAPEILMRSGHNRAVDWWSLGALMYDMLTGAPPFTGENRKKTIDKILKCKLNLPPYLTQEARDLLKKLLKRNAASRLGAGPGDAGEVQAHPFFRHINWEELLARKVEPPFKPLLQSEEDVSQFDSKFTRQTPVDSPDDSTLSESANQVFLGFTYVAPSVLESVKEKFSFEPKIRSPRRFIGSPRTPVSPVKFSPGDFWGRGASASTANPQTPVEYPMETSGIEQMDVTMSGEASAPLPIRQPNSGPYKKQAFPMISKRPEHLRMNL
Protocol: as §1

STK33 = STK33 (Homo sapiens, UniProt Q9BYT3)
Protocol: as §1

SYK = SYK (Homo sapiens, UniProt P43405)
Protocol: as §1

Src = Src (Homo sapiens, UniProt P12931)
Src, sequence (P12931 whole entry): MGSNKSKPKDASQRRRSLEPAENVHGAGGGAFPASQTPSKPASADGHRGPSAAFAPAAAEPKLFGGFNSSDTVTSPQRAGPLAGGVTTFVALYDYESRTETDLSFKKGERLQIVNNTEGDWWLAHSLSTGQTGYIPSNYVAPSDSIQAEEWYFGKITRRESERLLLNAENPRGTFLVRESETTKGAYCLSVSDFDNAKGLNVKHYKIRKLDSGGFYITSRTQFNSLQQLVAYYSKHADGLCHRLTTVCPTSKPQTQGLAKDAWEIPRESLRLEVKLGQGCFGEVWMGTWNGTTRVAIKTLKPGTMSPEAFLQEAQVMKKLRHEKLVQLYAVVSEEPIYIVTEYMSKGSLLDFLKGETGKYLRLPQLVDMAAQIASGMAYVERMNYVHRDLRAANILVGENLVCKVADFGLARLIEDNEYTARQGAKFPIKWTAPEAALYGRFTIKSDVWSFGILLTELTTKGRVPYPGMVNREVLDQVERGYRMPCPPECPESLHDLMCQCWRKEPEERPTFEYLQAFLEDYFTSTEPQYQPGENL
Protocol: as §1

TBK1 = TBK1 (Homo sapiens, UniProt Q9UHD2)
Protocol: as §1

TTK = TTK (Homo sapiens, UniProt P33981)
Protocol: as §1

TrkA = TrkA (Homo sapiens, UniProt P04629)
Protocol: as §1

VEG-FR = VEG-FR (Homo sapiens, UniProt P17948)
VEG-FR, sequence (P17948 784-1338 limits assumed): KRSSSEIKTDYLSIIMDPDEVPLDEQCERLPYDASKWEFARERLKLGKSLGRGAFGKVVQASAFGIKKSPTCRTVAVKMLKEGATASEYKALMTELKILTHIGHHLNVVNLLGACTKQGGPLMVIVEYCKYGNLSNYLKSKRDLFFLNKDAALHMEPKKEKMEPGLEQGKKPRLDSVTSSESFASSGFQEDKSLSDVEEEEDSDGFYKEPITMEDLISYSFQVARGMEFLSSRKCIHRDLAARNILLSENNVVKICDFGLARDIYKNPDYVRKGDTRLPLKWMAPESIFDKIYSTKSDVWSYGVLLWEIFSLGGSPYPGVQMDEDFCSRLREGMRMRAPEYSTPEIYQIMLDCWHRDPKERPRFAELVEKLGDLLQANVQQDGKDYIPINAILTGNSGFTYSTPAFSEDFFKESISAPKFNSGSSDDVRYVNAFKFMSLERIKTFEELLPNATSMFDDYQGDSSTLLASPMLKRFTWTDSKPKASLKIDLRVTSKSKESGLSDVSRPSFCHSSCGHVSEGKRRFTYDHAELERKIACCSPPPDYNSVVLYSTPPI
Protocol: as §1

p38b MAPK = p38b MAPK (Homo sapiens, UniProt Q15759)
Protocol: as §1

p38d MAPK = p38d MAPK (Homo sapiens, UniProt O15264)
Protocol: as §1

p38g MAPK = p38g MAPK (Homo sapiens, UniProt P53778)
Protocol: as §1

`CN(C)c1ccc2c(c1)Oc1cc(N(C)C)ccc1C21OC(=O)c2cc(C(=O)NCCCC[C@@H](NC(=O)[C@@H](CCCNC(=N)N)NC(=O)[C@@H](CCCNC(=N)N)NC(=O)[C@@H](CCCNC(=N)N)NC(=O)[C@@H](CCCNC(=N)N)NC(=O)[C@@H](CCCNC(=N)N)NC(=O)[C@@H](CCCNC(=N)N)NC(=O)CCCCCNC(=O)[C@@H](CCCNC(=N)N)NC(=O)CCCCCNC(=O)c3ccc(-c4ccnc(N)n4)s3)C(N)=O)ccc21` [ARC-669] showed a remaining activity at 1 µM (ABL) of 88%, a remaining activity at 1 µM (Aurora A) of 86% and a remaining activity at 1 µM (Aurora B) of 81%. The remaining activity at 1 µM (BRK) was 100%, the remaining activity at 1 µM (BRSK1) was 44% and the remaining activity at 1 µM (BRSK2) was 77%. For the same compound, the remaining activity at 1 µM (CAMKKb) was 41%, the remaining activity at 1 µM (CSK) was 51% and the remaining activity at 1 µM (DAPK1) was 20%. It also gave a remaining activity at 1 µM (DYRK1A) of 27%, a remaining activity at 1 µM (DYRK2) of 65% and a remaining activity at 1 µM (DYRK3) of 18%. For the same compound, the remaining activity at 1 µM (EPH-B3) was 75%, the remaining activity at 1 µM (ERK1) was 114% and the remaining activity at 1 µM (HIPK2) was 63%. For the same compound, the remaining activity at 1 µM (IGF-1R) was 38%, the remaining activity at 1 µM (IR) was 52% and the remaining activity at 1 µM (JNK1) was 91%. For the same compound, the remaining activity at 1 µM (JNK3) was 77%, the remaining activity at 1 µM (LKB1) was 101% and the remaining activity at 1 µM (MKK2) was 68%. It also gave a remaining activity at 1 µM (MLK3) of 70%, a remaining activity at 1 µM (MNK2) of 76% and a remaining activity at 1 µM (MST2) of 94%. It also gave a remaining activity at 1 µM (PAK4) of 32%, a remaining activity at 1 µM (PIM3) of 7% and a remaining activity at 1 µM (PKCz) of 10%. It also gave a remaining activity at 1 µM (PRK2) of 4%, a remaining activity at 1 µM (RIPK2) of 47% and a remaining activity at 1 µM (RSK1) of 2%. It also gave a remaining activity at 1 µM (S6K1) of 4%, a remaining activity at 1 µM (STK33) of 76% and a remaining activity at 1 µM (SYK) of 73%. The remaining activity at 1 µM (Src) was 106%, the remaining activity at 1 µM (TBK1) was 27% and the remaining activity at 1 µM (TTK) was 66%. It also gave a remaining activity at 1 µM (TrkA) of 101%, a remaining activity at 1 µM (VEG-FR) of 25% and a remaining activity at 1 µM (p38b MAPK) of 71%. For the same compound, the remaining activity at 1 µM (p38d MAPK) was 104% and the remaining activity at 1 µM (p38g MAPK) was 104%.
